We go through three substances from patent US20080207488A1, “Method for Detecting Peptides Comprising a Cross-B Structure” (priority 2005, published 2008).

Series [1] in a line: Congo red fluorescence. The series is classed as physicochemical. As to conditions: marketed biopharmaceutical within expiry limits, five μL tested. The method, then: Background signals from buffer, buffer with Congo red and protein/peptide solution without Congo red were subtracted from corresponding measurements with protein solution incubated with Congo red. Fluorescence was measured in triplicate on a Hitachi F-4500 fluorescence spectrophotometer (Ltd., Tokyo, Japan).
Formulated protein therapeutics were obtained from the local hospital pharmacy and were used as supplied by the manufacturers. […] Lyophilized therapeutics were dissolved according to the manufacturers recommendations. […] Other protein therapeutics were only kept at 4° C., and assayed for the presence of cross-β structure conformation at shown time points. Enhancement in fluorescence of ThT and Congo red was measured with all formulated protein therapeutics. For this purpose, proteins were diluted to the indicated concentrations. […] Zinc-insulin was diluted tenfold in the activation assay, GH was diluted to a final concentration of 500 μg ml^−1. Activation of factor XII and prekallikrein by the therapeutics was tested in the chromogenic factor XII assay (see above). […] After coating, plates were blocked with Blocking Reagent (Roche Diagnostics, Almere, The Netherlands).
Protein therapeutics were obtained from the local hospital pharmacy and analyzed within the expiry limits as stated by the manufacturers.

Series [2] addresses T1, tPA (Homo sapiens, UniProt P00750).
T1 construct: purchased Boehringer-Ingelheim (Actilyse, Alteplase)
Briefly: Biacore surface plasmon resonance, binding to immobilized tPA. As to conditions: Hb-AGE 32, amyloid γ-globulins 62.5, albumin-AGE 3.9 μg ml^−1. The method, then: Binding of cross-β structure conformation containing peptides/proteins was studied using surface plasmon resonance technology with a Biacore 2000 apparatus (Biacore AB, Uppsala, Sweden). A standardized amine coupling procedure was used to couple proteins with F domains to a CM5 chip (Biacore AB, Uppsala, Sweden). First, the dextran surface of the chips was activated by a 35 μl injection with a 1:1 mixture of 0.1 M N-hydroxysuccinimide (NHS) and 0.4 M N-ethyl-N′-(dimethylaminopropyl)carbodiimide (EDC) at a flow rate of 5 μl min.^−1. Then, the proteins were covalently coupled to the activated dextran surface. Remaining activated groups in each of the four flow channels were blocked by injection of 35 μl of 1 M ethanolamine hydrochloride pH 8.5. EDC, NHS and ethanolamine hydrochloride were obtained from Biacore. On one chip, on channels 1 to 4, buffer (reference channel), the soluble extracellular part of receptor for advanced glycation endproducts (sRAGE), tPA and K2P-tPA were immobilized. […] Binding of albumin-AGE was determined with a solution of 3.9 μg ml^−1 albumin-AGE in running buffer. albumin-AGE was filtered on a Millex-GV 0.22 μm filter unit (Millipore). […] Binding of Hb-AGE was also tested after centrifugation for 10 min. at 16,000*g alternative to filtration. tPA activation before and after filtration was assessed with a Plg-activation assay. […]
In general terms: In SPR one partner is held on a chip, and binding of the other changes the refractive index at the surface.

Series [3] is described as follows: ThT fluorescence of LPS-protein mixtures. The following applies: for ThT fluorescence enhancement vs protein in buffer only: 1 mg ml^−1 protein. The series is classed as physicochemical. The procedure: Fluorescence of ThT-protein/peptide adducts was measured as follows. […] Fluorescence was measured at 485 nm upon excitation at 435 nm. Background signals from buffer, buffer with ThT and protein/peptide solution without ThT were subtracted from corresponding measurements with protein solution incubated with ThT. […] Fluorescence was measured in triplicate on a Hitachi F-4500 fluorescence spectrophotometer (Ltd., Tokyo, Japan).
Subsequently, the ability to enhance ThT fluorescence was determined with 40× diluted solution, as described above. […]

T1 sequence (P00750 36-562): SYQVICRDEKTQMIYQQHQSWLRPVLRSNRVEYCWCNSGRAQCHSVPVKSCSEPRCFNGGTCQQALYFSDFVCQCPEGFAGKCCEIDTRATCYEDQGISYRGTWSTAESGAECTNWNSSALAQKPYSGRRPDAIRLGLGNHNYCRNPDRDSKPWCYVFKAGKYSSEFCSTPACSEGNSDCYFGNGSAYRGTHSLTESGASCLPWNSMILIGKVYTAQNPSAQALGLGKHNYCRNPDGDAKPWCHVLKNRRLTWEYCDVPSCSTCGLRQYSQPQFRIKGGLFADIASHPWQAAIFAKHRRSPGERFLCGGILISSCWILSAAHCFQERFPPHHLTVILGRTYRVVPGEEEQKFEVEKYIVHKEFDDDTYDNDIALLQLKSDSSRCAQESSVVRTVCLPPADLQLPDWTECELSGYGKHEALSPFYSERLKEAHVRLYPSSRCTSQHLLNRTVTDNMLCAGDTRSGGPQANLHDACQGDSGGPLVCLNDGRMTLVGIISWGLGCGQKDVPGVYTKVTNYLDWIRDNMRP

Turning to “Abciximab: abciximab, an inhibitor of blood platelet aggregation (ReoPro, Centocor)”, the “Fluorescence (a.u. +/− SD) CR” value in series [1] is on record as 25 +/− 1 a.u.
As to “albumin-AGE: advanced glycation end-product modified bovine serum albumin”, in series [2], the “binding to immobilized tPA” value is listed as “bind”.
Regarding lysozyme: chicken egg-white lysozyme, the ThT fluorescence enhancement result in series [3] (200 μg ml^−1 LPS (FIG. 4D, E)) is listed as “approximately 5 times”; in series [3] (400 μg ml^−1 LPS (FIG. 4D, E)) it was ~11 times; in series [3] (600 μg ml^−1 LPS (FIG. 4D, E)), ~18 times; in series [3] (1 mg ml^−1 protein exposed to 600 μg ml^−1 LPS (FIG. 4C)), “approximately 10 times”. Further, the “ThT fluorescence enhancement vs protein in buffer only” value in series [3] (10 μg ml^−1 LPS (FIG. 4B)) is 1.1 times; in series [3] (25 μg ml^−1 LPS (FIG. 4B)) it was 1.3 times; in series [3] (100 μg ml^−1 LPS (FIG. 4B)), 1.6 times; in series [3] (200 μg ml^−1 LPS (FIG. 4B)), 2.3 times; in series [3] (600 μg ml^−1 LPS (FIG. 4B)) it was 5.7 times; in series [3] (1200 μg ml^−1 LPS (FIG. 4B)), 13.1 times.
